These results are taken from patent US20240261333A1, “NOVEL TARGETS FOR ENHANCING ANTI-TUMOR IMMUNITY” (THE BROAD INSTITUTE, INC., priority 2021, published 2024).

Test [1] deals with CAPZB (human) (UniProt P47756). Description: co-IP/MS, IgG control IP of C-FLAG B3GNT2 cell lysate.
For test [2], the target named is CKAP4 (human) (UniProt Q07065). The description is as above.
The target in test [3] is RPS15 (human) (UniProt P62841). Described as above.
Test [4] deals with TUBB (human) (UniProt P07437). The test is described as above.
Chain of TUBB (human) (P07437 whole entry): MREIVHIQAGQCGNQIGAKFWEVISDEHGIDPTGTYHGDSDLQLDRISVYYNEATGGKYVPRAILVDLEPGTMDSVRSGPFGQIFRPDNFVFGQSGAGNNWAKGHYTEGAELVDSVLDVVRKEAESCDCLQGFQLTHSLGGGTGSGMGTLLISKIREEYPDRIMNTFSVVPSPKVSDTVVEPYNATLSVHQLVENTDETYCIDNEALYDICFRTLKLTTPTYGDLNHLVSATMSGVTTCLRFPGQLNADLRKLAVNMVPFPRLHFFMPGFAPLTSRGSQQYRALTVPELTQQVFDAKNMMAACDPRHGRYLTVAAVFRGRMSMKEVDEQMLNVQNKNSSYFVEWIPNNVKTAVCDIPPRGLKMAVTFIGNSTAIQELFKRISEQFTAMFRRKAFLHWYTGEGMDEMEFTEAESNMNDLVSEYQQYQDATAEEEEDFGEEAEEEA
The target in test [5] is CDSN (UniProt Q15517). The test can be described thus: co-IP, anti-FLAG, N-FLAG B3GNT2 cell lysate, mass spectrometry.
Chain of CDSN (Q15517 33-529 limits assumed): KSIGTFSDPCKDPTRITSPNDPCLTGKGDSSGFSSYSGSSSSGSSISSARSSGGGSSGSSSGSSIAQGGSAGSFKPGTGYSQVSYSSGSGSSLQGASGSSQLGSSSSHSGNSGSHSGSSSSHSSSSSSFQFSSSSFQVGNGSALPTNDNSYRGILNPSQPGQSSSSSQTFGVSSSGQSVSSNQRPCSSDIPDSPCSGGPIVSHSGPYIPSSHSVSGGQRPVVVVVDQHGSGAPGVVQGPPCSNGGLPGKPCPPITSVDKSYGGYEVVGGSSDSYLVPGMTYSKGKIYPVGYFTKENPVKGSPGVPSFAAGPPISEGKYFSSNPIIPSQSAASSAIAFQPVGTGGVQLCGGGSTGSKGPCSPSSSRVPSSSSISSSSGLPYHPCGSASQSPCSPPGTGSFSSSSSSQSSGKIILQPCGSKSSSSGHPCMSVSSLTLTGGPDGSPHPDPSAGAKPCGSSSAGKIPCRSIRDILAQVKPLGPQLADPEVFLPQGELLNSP
Test [6] addresses DNAJA2 (UniProt O60884). Described as above.
Test [7] addresses EMD (UniProt P50402). The test is described as above.
Test [8] has as its target HIST1H1E (UniProt P10412). The test is described as above.
The target in test [9] is ITGB3 (UniProt P05106). The test is described as above.
Test [10] addresses MTCH2 (UniProt Q9Y6C9). The description is as above.
The target in test [11] is MTDH (UniProt Q86UE4). The description is as above.
Test [12] addresses PBXIP1 (UniProt Q96AQ6). The description is as above.
The target in test [13] is POF1B (UniProt Q8WVV4). The test is described as above.
For test [14], the target named is PSMA7 (UniProt O14818). The test is described as above.
Test [15] has as its target RPL19 (UniProt P84098). Described as above.
The target of test [16] is RPL27A (UniProt P46776). The test is described as above.
The target of test [17] is RPL3 (UniProt P39023). The test is described as above.
Test [18] addresses RPL35 (UniProt P42766). The description is as above.
Test [19] concerns the target TAGLN (UniProt Q01995). The description is as above.
Test [20] has as its target TMEM59 (UniProt Q9BXS4). The description is as above.
The target of test [21] is ALDOA (UniProt P04075). Description: co-IP, anti-FLAG, lysate of N-FLAG B3GNT2 cells, mass spectrometry.
In test [22] the target is CALM2 (UniProt P0DP24). Described as above.
Test [23] concerns the target CNP (UniProt P09543). The description is as above.
Test [24] deals with DPM1 (UniProt O60762). The description is as above.
The target in test [25] is HSPA5 (UniProt P11021). Described as above.
Test [26] deals with LOXL4 (UniProt Q96JB6). Described as above.
Chain of LOXL4 (Q96JB6 25-756 limits assumed): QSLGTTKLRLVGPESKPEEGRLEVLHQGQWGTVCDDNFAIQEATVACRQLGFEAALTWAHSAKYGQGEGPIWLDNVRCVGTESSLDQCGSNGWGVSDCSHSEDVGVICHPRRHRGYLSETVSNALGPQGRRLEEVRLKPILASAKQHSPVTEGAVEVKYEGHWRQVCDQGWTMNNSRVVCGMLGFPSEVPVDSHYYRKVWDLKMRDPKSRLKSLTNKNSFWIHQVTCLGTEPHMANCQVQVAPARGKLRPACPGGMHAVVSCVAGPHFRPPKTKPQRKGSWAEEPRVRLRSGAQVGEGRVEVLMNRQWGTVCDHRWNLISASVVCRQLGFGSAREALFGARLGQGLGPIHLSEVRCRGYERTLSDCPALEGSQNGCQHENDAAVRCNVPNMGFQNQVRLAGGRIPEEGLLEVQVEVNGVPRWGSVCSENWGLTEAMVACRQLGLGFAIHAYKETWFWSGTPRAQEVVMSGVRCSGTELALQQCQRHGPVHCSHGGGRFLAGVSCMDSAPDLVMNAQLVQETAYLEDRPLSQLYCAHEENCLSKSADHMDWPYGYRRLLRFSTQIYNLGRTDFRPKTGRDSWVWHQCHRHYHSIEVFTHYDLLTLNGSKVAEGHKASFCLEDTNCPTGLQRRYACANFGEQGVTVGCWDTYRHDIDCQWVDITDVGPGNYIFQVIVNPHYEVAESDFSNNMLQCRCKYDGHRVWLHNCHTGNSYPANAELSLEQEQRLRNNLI
Test [27] concerns the target OS9 (UniProt Q13438). The description is as above.
Test [28] addresses PRR4 (UniProt Q16378). The description is as above.
Test [29] deals with PSMA1 (UniProt P25786). The test is described as above.
Chain of PSMA1 (P25786 whole entry): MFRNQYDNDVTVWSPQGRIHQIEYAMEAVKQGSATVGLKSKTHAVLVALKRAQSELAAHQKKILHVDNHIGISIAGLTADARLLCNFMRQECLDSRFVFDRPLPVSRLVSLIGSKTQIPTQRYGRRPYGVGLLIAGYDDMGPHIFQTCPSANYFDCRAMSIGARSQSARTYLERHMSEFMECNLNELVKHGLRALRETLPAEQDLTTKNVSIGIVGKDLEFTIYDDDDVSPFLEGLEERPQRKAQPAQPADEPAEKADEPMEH
The target in test [30] is PSMA4 (UniProt P25789). The description is as above.
Chain of PSMA4 (P25789 whole entry): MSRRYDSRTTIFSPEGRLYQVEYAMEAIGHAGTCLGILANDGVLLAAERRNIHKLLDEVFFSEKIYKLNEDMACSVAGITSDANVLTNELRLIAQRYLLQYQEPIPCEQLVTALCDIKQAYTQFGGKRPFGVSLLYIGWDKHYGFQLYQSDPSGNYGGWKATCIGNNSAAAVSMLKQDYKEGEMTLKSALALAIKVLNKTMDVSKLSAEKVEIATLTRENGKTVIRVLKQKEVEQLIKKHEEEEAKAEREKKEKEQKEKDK
Test [31] addresses RAB1B (UniProt Q9H0U4). The description is as above.
Test [32] addresses RPL18A (UniProt Q02543). The test is described as above.
In test [33] the target is RPL29 (UniProt P47914). Described as above.
The target in test [34] is SERPINE2 (UniProt P07093). The test is described as above.
Chain of SERPINE2 (P07093 20-398 limits assumed): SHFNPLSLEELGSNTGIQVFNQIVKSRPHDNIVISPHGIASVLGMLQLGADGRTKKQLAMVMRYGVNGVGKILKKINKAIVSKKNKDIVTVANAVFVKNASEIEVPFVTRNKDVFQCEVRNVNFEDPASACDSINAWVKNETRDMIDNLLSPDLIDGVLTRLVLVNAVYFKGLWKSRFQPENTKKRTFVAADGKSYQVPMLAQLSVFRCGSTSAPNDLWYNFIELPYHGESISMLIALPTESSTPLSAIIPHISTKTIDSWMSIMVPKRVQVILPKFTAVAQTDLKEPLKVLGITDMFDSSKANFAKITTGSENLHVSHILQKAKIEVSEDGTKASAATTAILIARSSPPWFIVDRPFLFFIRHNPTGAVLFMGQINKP
Test [35] concerns the target SLC25A1 (UniProt P53007). The test is described as above.
Test [36] addresses SLC25A10 (UniProt Q9UBX3). Described as above.
The target in test [37] is SLC25A3 (UniProt Q00325). The test is described as above.
Chain of SLC25A3 (Q00325 50-362 limits assumed): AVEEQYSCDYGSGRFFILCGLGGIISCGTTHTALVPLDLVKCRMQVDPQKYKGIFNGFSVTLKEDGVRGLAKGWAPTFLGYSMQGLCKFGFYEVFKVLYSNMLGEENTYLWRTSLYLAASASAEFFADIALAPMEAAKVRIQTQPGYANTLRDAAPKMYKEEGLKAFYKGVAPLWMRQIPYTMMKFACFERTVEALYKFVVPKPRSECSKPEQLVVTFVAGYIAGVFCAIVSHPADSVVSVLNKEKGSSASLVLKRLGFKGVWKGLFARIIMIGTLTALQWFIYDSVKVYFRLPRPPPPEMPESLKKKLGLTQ
For test [38], the target named is SMN1 (UniProt Q16637). Described as above.
Chain of SMN1 (Q16637 other isoform, or with tags, fused parts or gaps limits assumed): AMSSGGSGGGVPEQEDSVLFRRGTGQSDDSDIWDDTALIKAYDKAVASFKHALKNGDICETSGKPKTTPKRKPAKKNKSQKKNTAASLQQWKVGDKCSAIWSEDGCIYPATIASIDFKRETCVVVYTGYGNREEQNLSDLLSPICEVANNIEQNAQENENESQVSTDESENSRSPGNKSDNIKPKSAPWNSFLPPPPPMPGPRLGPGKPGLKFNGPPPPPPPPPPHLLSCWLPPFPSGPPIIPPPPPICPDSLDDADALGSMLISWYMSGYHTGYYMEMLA
In test [39] the target is SRSF7 (UniProt Q16629). The description is as above.

Chain of HIST1H1E (P10412 2-219 limits assumed): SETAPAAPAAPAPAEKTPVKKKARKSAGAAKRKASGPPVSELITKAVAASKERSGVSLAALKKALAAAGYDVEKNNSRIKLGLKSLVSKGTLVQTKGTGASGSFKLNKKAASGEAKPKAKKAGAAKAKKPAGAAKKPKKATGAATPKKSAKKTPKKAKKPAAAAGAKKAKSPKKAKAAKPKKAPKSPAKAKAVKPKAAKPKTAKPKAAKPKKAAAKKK
Chain of CKAP4 (human) (Q07065 whole entry): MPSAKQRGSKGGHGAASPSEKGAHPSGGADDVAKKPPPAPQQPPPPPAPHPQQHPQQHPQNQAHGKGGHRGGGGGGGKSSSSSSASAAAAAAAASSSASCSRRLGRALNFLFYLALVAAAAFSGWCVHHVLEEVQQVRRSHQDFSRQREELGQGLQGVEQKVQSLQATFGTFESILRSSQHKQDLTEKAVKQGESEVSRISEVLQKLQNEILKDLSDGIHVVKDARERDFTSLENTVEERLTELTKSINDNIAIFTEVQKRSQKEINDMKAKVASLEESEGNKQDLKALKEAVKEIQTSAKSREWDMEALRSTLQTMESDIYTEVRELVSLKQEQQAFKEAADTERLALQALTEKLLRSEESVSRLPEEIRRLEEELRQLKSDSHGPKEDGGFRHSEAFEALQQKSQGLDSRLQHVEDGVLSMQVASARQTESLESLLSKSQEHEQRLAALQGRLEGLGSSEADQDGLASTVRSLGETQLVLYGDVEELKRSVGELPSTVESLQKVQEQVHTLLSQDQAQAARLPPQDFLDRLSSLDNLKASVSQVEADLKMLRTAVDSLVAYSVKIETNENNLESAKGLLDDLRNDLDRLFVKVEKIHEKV
Chain of OS9 (Q13438 other isoform, or with tags, fused parts or gaps limits assumed): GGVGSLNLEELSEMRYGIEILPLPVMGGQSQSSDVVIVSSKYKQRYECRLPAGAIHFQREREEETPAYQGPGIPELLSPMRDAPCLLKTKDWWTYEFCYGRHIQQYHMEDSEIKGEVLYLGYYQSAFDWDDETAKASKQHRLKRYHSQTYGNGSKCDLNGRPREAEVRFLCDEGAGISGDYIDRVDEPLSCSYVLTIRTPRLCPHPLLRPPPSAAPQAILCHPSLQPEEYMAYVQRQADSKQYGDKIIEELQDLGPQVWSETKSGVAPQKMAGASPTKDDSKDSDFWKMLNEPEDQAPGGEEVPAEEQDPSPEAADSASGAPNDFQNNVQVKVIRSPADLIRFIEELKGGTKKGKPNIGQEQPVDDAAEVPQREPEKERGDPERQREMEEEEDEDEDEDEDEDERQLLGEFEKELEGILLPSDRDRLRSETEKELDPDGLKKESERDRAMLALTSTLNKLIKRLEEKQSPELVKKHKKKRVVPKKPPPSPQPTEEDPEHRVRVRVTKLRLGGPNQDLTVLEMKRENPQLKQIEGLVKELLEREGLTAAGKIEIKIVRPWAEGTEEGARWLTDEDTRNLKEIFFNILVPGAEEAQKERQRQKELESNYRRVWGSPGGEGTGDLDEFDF
Chain of TMEM59 (Q9BXS4 36-323 limits assumed): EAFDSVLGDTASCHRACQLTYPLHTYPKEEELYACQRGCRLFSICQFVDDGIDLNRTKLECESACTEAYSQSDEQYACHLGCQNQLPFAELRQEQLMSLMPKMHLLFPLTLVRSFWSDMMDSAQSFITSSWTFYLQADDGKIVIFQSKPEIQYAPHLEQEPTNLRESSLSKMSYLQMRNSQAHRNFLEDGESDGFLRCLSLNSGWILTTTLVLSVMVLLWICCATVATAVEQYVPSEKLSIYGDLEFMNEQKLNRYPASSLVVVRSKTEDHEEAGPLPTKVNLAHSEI

Consider “IgG control (Millipore Sigma 12-371) (antibody)”, for which the co-IP mass spectrometry count in [1] was found to be 0; in test [2], 0; in test [3] it was 2; in test [4], 10.
Turning to “N-terminal FLAG tagged B3GNT2 (from UniProt Q9NY97 1-397) (enzyme)”, the co-IP mass spectrometry count in test [5] turned out to be 5; in test [6] it was 3; in [7] it was 2; in [8], 6; in test [9] it was 3; in test [10], 4. Further, the co-IP mass spectrometry count in test [11] amounted to 0; in test [12], 2; in test [13], 5; in test [14], 4; in test [15], 8; in [16] it was 7. Besides, the co-IP mass spectrometry count in test [17] was 8; in test [18], 7; in test [19], 2; in test [20], 6. The co-IP/MS count in [21] was 2; in test [22], 0; in test [23], 5; in test [24], 4; in test [25], 70; in [26], 5. Also, the co-IP/MS count is 3 in test [27]; 2 in test [28]; 2 in test [29]; 2 in test [30]; 0 in test [31]; 3 in test [32]. Moreover, the co-IP/MS count in test [33] amounted to 4; in test [34] it was 4; in test [35], 5; in test [36], 5; in test [37], 4; in test [38], 10. For the same substance, the co-IP/MS count in [39] is 2.
